The experiment has as its target T1, Yersinia pestis F1 antigen, cell-expressed (on Y. pestis cells) (Yersinia pestis, UniProt P26948 22-170).
T1 construct: whole, on cells; also called cell-expressed F1 antigen; F1-positive Y. pestis
Nature of the experiment: affinity for cell-expressed F1 antigen (method not given).

T1 sequence (P26948 22-170): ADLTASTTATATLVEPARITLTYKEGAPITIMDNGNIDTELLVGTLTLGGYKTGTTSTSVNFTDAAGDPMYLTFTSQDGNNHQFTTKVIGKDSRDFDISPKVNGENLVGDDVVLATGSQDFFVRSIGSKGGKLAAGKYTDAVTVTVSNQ

B1: AM IgG H (antibody, V domains shown)
VH: QVQLQQWGAGLLKPSETLSLTCAVYGGSFSGYYWSWIRQPPGKGLEWIGEINRSGNTNYNPSLKSRVTISVDTSKNQFSLQLNSVTPEDTAVYYCARTRGYFDLWGRGTLVTVSS
VL: QPVLTQSPSVSVSPGQTASITCSGDKLGGRYASWYQQKPGQSPVLVIYQDTKRPSGIPERFSGSNSGNTATLTISGTQAMDEADYYCQSWDSSAAVFGTGTKLTVLG
notes: also called AM^a IgG H
As to B1, the Kd – broadly, the free concentration of one partner at which half of the binding sites on the other are occupied at equilibrium, for simple one-to-one binding – is 0.03 nM.

B2: AM IgG B (antibody, V domains shown)
VH: QVQLVESGGGLVKPGGSLRLSCAASGFTFSDYYMSWIRQAPGKGLEWVSYISGSGSIIYYADSVKGRFTISRDNAKNSLYLQMNSLRAEDTAVYYCAKEIRKHDAFDIWGQGTMVTVSS
VL: DIRMTQSPSSLSASVGDRVTITCRASRSISGYLNWYQQKPGKAPKLLIYATSSLQSGVPSRFSGSGSGTDFTLTISSLQPEDFATYYCQQSYSTPSSFGQGTKVDIKR
notes: also called AM^a IgG B
As to B2, the Kd amounted to 0.09 nM.

Source of the values: patent publication US11702465 (TRIAD NATIONAL SECURITY, dated 2023).
